Data on 24 sequences can be found in the DeepSol protein solubility set.

A short description of this series: soluble on expression in E. coli; label from the status in PepcDB or PDB records.
With “GPGSMTEYKKLCAILAQLREEVTSLSCAFEGGEGQDTVALHSLSTSIQKLVTNAQPRLLKILRKATETDPNRQIYNEAMCAAIKQLFDDFCELLSCLFGVPMEEMVLSEGKINFEDSPSISWTEDVHNNYLLHLAQTEAWKKRIATNIADLVLFEEETRTVYFAEERKARETLLQIKRNEKTNILHMLKEREAAKWEAEVRRRNDEHKGLMNASSFYGVQNIATVLLRIPEPFRKLLAGNMAQLVRALRTTPEDPNIRRIRCNNRRVMMDYSHVVFCGECETCRILVAAAEILWYIMGYRVEYSTAPTSSLRTVIENNPPILLPCGRYASEHAIAVIGFEEYSERFFTLHEPDPMQDSDEWMVWYATLEALLARLEDCLV”, the “soluble on expression in E. coli” value is “not soluble”.
With “LMRSPKQKQLEVDHANKTNLKPKAIVNCDLFQLGDYCVFTFKKLSFKQRFKQDFFARSKFSFRS” the entry was “soluble”.
As to “MNLNFSLLDEPIPLRGGTILVLEDVCVFSKIVQYCYQYEEDSELKFFDHKMKTIKESEIMLVTDILGFDVNSSTILKLIHADLESQFNEKPEVKSMIDKLVATITELIVFECLENELDLEYDEITILELIKSLGVKVETQSDTIFEKCLEILQIFKYLTKKKLLIFVNSGAFLTKDEVASLQEYISLTNLTVLFLEPRELYDFPQYILDEDYFLITKNMV”, the “soluble on expression in E. coli” value is on record as “not soluble”.
“KYNMGNANYRIQKELHNFLNNPPINCTLDVHPNNIRIWIVKYVGLENTIYANEVYKLKIIFPDDYPLKPPIVYFLQKPPKHTHVYSNGDICLSLLGDDYNPSLSISGLVLSIISMLSSAKEKKLP”: the “soluble on expression in E. coli” value is “soluble”.
Next, “MGSDKIHHHHHHMRLKITHRTEYRYDAPVQYLLQRLRLLPVSGQTQTVLSWALKVEGAREEVRFTDHYGNDTRLLSVEGDHDFITVEASGEVVTRDTSGVCGSHQGFAPLWLFAQETPLTAIGGGIRKLAEAVGTGTDIERLHRLMAMIGERVAYTPGSTKATTPAEEALALKTGVCQDHSHIFAAAARAMGFPSRYVSGYLMMDAVEQAASHAWAEAHVPGLGWVAFDPANGISPDERYVKVATGRDYRDASPVSGIRQGQAEERLAVTVTVEQ”: “not soluble”; “MKKLLFFLFTLVVLASGCGKKNTFTLEGSIKGLPSDTILVFYQEPDYKLDTILLSKGKFTYTITPDTFTIFSLLLGEKQILPIYADKGESVTLNGMVGKIEVKGKGENAQLAKHIQYLSTLENNKAAVMTAVDSLIKTNPSSYSNIYLIDKYYVQDSLPDYNHIDQLIKGLSGIIKDTPYIIELQNKLSEKKELTEHRYVSNISCTDKKGKTVNWNSVKGKYVLLDFWASWNKESIATQDSLVSVQKALKKDKFVIISLSLDLDKKEWMEKIIQRDTTQWKQVCDFKGWNNSIVKQQGITRIPANILIGPDKRVITQDIRGKELIDKVRQLTEQDKEKEKAAKEAERARKRQNKK”: “not soluble”; “MGSDKIHHHHHHMIDIHCHILPEIDDGPSSLEESLVMAREAVKEGITKIIATPHHLHPSYNNKAAVVKEKVRKLNEAIQKENIPLEILPGQEVRISGDVMDGLVSGDILTLADQGKYLFVEFSSNHVSRYADKLFFQLLSQDIIPIIVHPERNHEFLKNPGLLYDLVNGGALTQITTSSLTGHLGKKIKKFTEQIIEADLTHFLASDAHNVTERTFRIREAFALVEKNYGSSKAYEFQENAELLVENQHVMGPPPQPIVKKKLLGIF”: “not soluble”.
“GTLDTTWKEATLPQVKAMLEKDTGKVSGDTVTYSGKTVHVVAAAVLPGFPFPSFEVHDKKNPTLEIPAGATVDVTFINTNKGFGHSFDITKKGPPYAVMPVIDPIVAGTGFSPVPKDGKFGYTNFTWHPTAGTYYYVCQIPGHAATGQFGKIVVK”: the “soluble on expression in E. coli” value is reported as “soluble”.
Consider “MAHHHHHHMLSGAEELISDLFRRTSTTSNAVEFILSSNSAAYHDVMQRICNSNQPQLVKGILRTAQSLLPTELFQVFGKSVVPVLLLFAPAVLRRVGELLAAPKETPLSTCGEWDAFTSFITGIHCKLLASPECRATNVRSLPPPPVAARHTPSWSKVFHGEENVSEGVPPPQPSTDCEVNVTAIGTDNYGSLLCTIVCGLSHLLACVATPPCVIGGPGLTTLCNEVMRLLSSTPVFCYASKDANLQIACVSLLLSVLNLGKAVQGCVASSFMPTMRRWFDLTLYSANAVCIQLLFPYILHARAHR”, for which the “soluble on expression in E. coli” value was “not soluble”.
For the sequence “MGHHHHHHSHKPDEDDANRLGEKVILREQVKELFNEKYGEALGLNRPVLVPYKLIRDSPDAVEVTGLPDDIPFRNPNTYDIHRLEKILKAREHVRMVIINQLQPFAEICNDAKVPAKDSSIPKRKRKRVSEGNSVSSSSSSSSSSSSNPDSVASANQISLVQWPMYMVDYAGLNVQLPGPLNY”, the “soluble on expression in E. coli” value is given as “not soluble”.
As for “MTTHIQKPATGSPLTLLNGVLQVPDQPIIPFIEGDGIGCDVTPAMRSVVDAAVAKVYGGQRQIAWMELFAGQKAVQLYGEGQYLPDETMAAIREYKVAIKGPLETPVGGGIRSLNVAMRQDLDLYVCLRPVRYFEGTPSPMRHPEKVDMVIFRENSEDIYAGIEWPAGSPEAEKIIRFLREEMGVTKIRFPDSSAIGIKPVSTEGSERLIRRTIQYALEHGKPSVSLVHKGNIMKFTEGGFRDWGYALAEREFAGRVFTWRQKAAISKAEGKAAGQKAEQQAIADGKLIIKDVIADNFLQQILLRPEDYSVVATLNLNGDYVSDALAAEVGGIGMAPGANLSDTHAIFEATHGTAPDIAGQGKANPSSLILSAVMMLEHLGWGEAAQAIVAAMNATIAAGEVTGDLAALRGDVPALSTTEFTAALIRRF”, the “soluble on expression in E. coli” value is “soluble”.
Next, “ASLIEDIDKKHLVLLRDGRTLIGFLRSIDQFANLVLHQTVERIHVGKKYGDIPRGIFVVRGENVVLLGEI”: “not soluble”; “MGSDKIHHHHHHMAVVFPSKEWMEELYKKVNADEEYRRVAANWEGDYLCVVELDEEALRDFQNPKVLRGFLGMLDSIPKEKRERFRGTPSEKLLEALGLSLDSDLSDANVEEIAKKIAENPDKILEAAKGASLNIWMDFWHGDFRNIEVAAPGEHEDAKFKLIGPYAVFKQLVMGKADAITLVVSGKLKLQGDMGYMMRNMATVKKFTDLMASIPIET”: “not soluble”; “EKKPYIISNVGMTLDGKLATINNDSRISCEEDLIRVHKIRANVDGIMVGIGTVLKDDPRLTVHKIKSDRNPVRIVVDSKLRVPLNARVLNKDAKTIIATTEDTNEEKEKKIKILEDMGVEVVKCGRGKVDLKKLMDILYDKGIKSILLEGGGTLNWGMFKEGLVDEVSVYIAPKIFGGKEAPTYVDGEGFKTVDECVKLELKNFYRLGEGIVLEFKVKK”: “soluble”.
Next, “VSAETAARIDAESDSMDWPQEVTLGEVLRERFGDDLVDHVVSALQGGVYSSTSDDLSLRDTVPQLARALDRLKEEGKPVTITAAVQSIMADREKRNKARGYKPSVFAAFPGGYAELYEALAEKSGAKIHIDAFITGIQWKDGFTLKGAEGTFDK”: “not soluble”; “MGSDKIHHHHHHMKISLGPLLYCWEKQQVIDFYQQVANSQIPLVYLGEAVCSRRRELKWGDYLELAKMLKSAGKDVVLSTLALIEAPSEYTELKRQVDNGEFMIEANDMAAVYLAKEHKQPFVCGASINNYNRASLDILQRLGMQRFVMPVELSKTWLSQVVDKKPSFEVEVLGHGYLPLAHSARCFTARHSQLAKDSCETVCRQYSKGLLAQTQEAQPLLRLNGIQTQSASCVDLRSEISAMVKIGVDVFRVSPSSLACIAKADALVEALNSGAMDAQYPLSDEHCNGYWFGEAGLKSLS”: “not soluble”; “MENRGILFDKDGTCIRFDTLWQAGLQACFETLSMLAPHHSAEIKKILAIQEQRFLQKHLLDEVLYQELYQELAQFEELVEQGISSRWLEQFFYDYLRKNLKKIEPIGDLKQLFLELKRKNYKIGLATSDTLPATMLIMEYLGLTEMFDFIATGDRYLPKPDADMLQAFCQSCQLKATEVIMVGDSLVDVFMGTCHGKAGIGVLTGNCQSTDFEKFEVAYFRDIHEIPYQELWENTKKKKIYYF”: “not soluble”.
“MGHHHHHHSHMLKKMGEAVARVARKVNETVESGSDTLDLAECKLVSFPIGIYKVLRNVSGQIHLITLANNELKSLTSKFMTTFSQLRDVPVEKLAAMPALRSINLRFNPLNAEVRVIAPPLIKFDMLMSPEGARAPLP”: the “soluble on expression in E. coli” value is recorded as “not soluble”.
Take “MGSDKIHHHHHHMEEVVKRLAEIRAMDARGEGGRLFTYLYETGDPGVKEVSLRAFEMFLDTNALDPTVFKSALFFERELVSFASSLAGGVEGVVGTVTYGGTESIILAAMAAREWYRSLGGSRTPGIVAPQTVHPSVRKAARYLGMRLSIAPVDPGSKRVDIDSLVSLVDDRTAMVVVSAPNYPYGTVDDVRSVAEALSSQRVWLHVDACVGGFILPFMRELGLYSGAFAFDVEGVYSVSMDLHKYGYSPKGASVLLFRDGSLKKHSIFADLRWPGYPFINTTVLSSRSVAPLAAAWAVTNYLGRRGYLELARKAVEARDEIMRGLESIGFRSLAPIESTILSVALDDPADTLRFHANMSRRGWILGLQPGVEGLAPPNIHLTISPIHKLVSPQFLGDARASSSEPLPKELEEAWRLLESRGPLELAGMIGRTQYDQVIIAWILSSIPPDLAEDLARELTVEVYRG”: the “soluble on expression in E. coli” value is given as “not soluble”.
As for “MVEFSKESSTRVSVNSQRQISHVQKRELTKRKSVRFETQTVESTSEFVGKTNQEWTFVADCFNLDKETRSEREQELLSLCNFFDSNEKELELSDASDESDDSVPFELFAEQGMRIAWTQIVTSPSLSNLRLASILRFDTKKKIVSPFIEDEKSPQEFFLDDNEAVENAFKGVLPCTNSQKVSRSRRASKSEEENDFVTAKGSDFWSDVEF”, the “soluble on expression in E. coli” value is given as “not soluble”.
With “MAHHHHHHMAFAGSNDVLKVQKMLQVLVEKRSDKKVNMDGSAKPTDQPHHPAPCGNAVDGKAPQGADAKGPLLDGKRANPTLGSSKSAKTGPAD” the entry was “not soluble”; with “MAPTLAEAEKFLRNSKIDKIVLEKLAEILVTTMDDWNLIADQKVAESVWVVLTEAGRSGNLSENLGDGDVAKQLKSVFEKIRLRLQAQLGTIQWKNDELVDYDVTISKNNKSSLHADHTFQRVVLTLKVIPAGKMDVEALVVDFDEAQLNDFIWKLLEAKAMMDRIQKRVESR”, “not soluble”; with “MSLNPYKIEVVDHTKLVESNTSINEKEEKSISSVEERANLYEDDEENDEEEDSNEFASEAIPFYSVLGEKDYFYFPSEQIQEHYSKRIPGYFMPNNYYCVNYDFTYNPVKKNVNGDEDDDDDEEEEEGDSGTDRKVKTQEKFRASFIFIDTWALMVGFPIIRNYRAFREQFNWLSKTLYESAKKSDWIFVVGHHPLISSGRRSDNYSYEEHSFHDIIRDFLFNYHVDAYFSAHDHLMEYIKFGSVDLFINGSSSRVLFDNSSMGRGYFGKIIGKLYPLSCYVLKTIHTGLKPKGCNINRYSKWYNKSDIGFSTHKLTKDELVTQFISSRTGKPLSEKIITKNKKHEREGHHHHHH”, “soluble”.
For the sequence “MEFFGESWKKHLSGEFGKPYFIKLMGFVAEERKHYTVYPPPHQVFTWTQMCDIKDVKVVILGQNPYHGPNQAHGLCFSVQRPVPPPPSLENIYKELSTDIEDFVHPGHGDLSGWAKQGVLLLNAVLTVRAHQANSHKERGWEQFTDAVVSWLNQNSNGLVFLLWGSYAQKKGSAIDRKRHHVLQTAHPSPRSVYRGFFGCRHFSKTNELLQKSGKKPIDWKEL”, the “soluble on expression in E. coli” value is listed as “soluble”.
